{"source": "paper PMC5362230", "about": "“MCPIP1, alias Regnase-1 binds and cleaves mRNA of C/EBPβ” (PLoS ONE, 2017)", "molecular_target": "the molecule itself", "assay": "native gel or EMSA; increasing amounts of purified protein (0-200 pmol) incubated with 2 pmol in vitro transcribed 3'UTR fragments of C/EBPβ mRNA; 25 mM Tris, 150 mM NaCl, 2.5 mM MgCl2, 2.5 mM DTT, 0.5 mM EDTA, 0.025 mM ZnCl2, pH 8.3; on ice 20 min; 0.8% agarose gel in TAE; oligomers read from heavier protein-RNA complexes"}
{"protein": "Full length human MCPIP1 (D141N) recombinant protein (enzyme, UniProt Q5D1E8 1-599, looked up, Monocyte chemoattractant protein-1-induced protein 1 (MCPIP1, Regnase-1), human, full length; point mutation D141N in the PIN domain abolishes RNase activity; also called Regnase-1 D141N; source: recombinant, purified) MSGPCGEKPVLEASPTMSLWEFEDSHSRQGTPRPGQELAAEEASALELQMKVDFFRKLGYSSTEIHSVLQKLGVQADTNTVLGELVKHGTATERERQTSPDPCPQLPLVPRGGGTPKAPNLEPPLPEEEKEGSDLRPVVINGSNVAMSHGNKEVFSCRGILLAVNWFLERGHTDITVFVPSWRKEQPRPDVPITDQHILRELEKKKILVFTPSRRVGGKRVVCYDDRFIVKLAYESDGIVVSNDTYRDLQGERQEWKRFIEERLLMYSFVNDKFMPPDDPLGRHGPSLDNFLRKKPLTLEHRKQPCPYGRKCTYGIKCRFFHPERPSCPQRSVADELRANALLSPPRAPSKDKNGRRPSPSSQSSSLLTESEQCSLDGKKLGAQASPGSRQEGLTQTYAPSGRSLAPSGGSGSSFGPTDWLPQTLDSLPYVSQDCLDSGIGSLESQMSELWGVRGGGPGEPGPPRAPYTGYSPYGSELPATAAFSAFGRAMGAGHFSVPADYPPAPPAFPPREYWSEPYPLPPPTSVLQEPPVQSPGAGRSPWGRAGSLAKEQASVYTKLCGVFPPHLVEAVMGRFPQLLDPQQLAAEILSYKSQHPSE", "values": [{"measurement": "binding result", "value": "binds"}]}
